Patent US6555328

T1: hPER2-C-terminal YGFP protein (human Period 2, full-length ORF), O15055
T1 sequence (O15055 whole entry, looked up): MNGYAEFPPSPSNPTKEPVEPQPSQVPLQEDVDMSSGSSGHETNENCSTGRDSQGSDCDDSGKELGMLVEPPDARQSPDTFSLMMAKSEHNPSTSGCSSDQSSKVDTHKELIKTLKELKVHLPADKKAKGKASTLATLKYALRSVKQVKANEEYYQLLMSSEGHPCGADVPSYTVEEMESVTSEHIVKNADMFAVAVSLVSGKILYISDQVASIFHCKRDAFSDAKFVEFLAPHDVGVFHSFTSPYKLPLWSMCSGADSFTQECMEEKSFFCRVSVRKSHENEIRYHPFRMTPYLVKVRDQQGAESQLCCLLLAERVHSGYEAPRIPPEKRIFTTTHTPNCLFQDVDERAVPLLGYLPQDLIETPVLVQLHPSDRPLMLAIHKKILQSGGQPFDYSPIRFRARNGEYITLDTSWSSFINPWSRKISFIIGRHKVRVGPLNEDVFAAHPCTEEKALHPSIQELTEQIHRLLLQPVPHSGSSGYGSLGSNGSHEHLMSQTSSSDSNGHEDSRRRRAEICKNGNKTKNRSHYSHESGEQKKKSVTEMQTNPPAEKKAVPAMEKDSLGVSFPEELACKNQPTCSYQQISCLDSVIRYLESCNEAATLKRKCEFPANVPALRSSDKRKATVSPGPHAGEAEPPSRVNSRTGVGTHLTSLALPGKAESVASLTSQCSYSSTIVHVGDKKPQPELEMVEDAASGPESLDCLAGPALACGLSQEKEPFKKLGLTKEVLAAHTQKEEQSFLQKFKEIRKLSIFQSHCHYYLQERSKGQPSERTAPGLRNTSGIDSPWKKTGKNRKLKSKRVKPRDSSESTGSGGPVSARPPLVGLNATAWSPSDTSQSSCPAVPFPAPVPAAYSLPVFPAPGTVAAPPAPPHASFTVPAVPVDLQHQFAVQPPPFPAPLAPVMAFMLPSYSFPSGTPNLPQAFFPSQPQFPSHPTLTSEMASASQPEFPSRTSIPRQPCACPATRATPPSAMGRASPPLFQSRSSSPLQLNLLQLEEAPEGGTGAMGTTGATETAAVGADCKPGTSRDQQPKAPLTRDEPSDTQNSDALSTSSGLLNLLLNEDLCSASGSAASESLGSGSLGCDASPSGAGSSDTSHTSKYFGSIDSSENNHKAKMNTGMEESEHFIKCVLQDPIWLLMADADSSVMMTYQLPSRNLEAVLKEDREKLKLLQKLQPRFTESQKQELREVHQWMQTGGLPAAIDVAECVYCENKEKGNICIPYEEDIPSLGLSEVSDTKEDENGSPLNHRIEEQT

T2: Flag-tagged hPER1 (human Period 1, full-length open reading frame, amino acids 1 to 1289), O15534
T2 chain: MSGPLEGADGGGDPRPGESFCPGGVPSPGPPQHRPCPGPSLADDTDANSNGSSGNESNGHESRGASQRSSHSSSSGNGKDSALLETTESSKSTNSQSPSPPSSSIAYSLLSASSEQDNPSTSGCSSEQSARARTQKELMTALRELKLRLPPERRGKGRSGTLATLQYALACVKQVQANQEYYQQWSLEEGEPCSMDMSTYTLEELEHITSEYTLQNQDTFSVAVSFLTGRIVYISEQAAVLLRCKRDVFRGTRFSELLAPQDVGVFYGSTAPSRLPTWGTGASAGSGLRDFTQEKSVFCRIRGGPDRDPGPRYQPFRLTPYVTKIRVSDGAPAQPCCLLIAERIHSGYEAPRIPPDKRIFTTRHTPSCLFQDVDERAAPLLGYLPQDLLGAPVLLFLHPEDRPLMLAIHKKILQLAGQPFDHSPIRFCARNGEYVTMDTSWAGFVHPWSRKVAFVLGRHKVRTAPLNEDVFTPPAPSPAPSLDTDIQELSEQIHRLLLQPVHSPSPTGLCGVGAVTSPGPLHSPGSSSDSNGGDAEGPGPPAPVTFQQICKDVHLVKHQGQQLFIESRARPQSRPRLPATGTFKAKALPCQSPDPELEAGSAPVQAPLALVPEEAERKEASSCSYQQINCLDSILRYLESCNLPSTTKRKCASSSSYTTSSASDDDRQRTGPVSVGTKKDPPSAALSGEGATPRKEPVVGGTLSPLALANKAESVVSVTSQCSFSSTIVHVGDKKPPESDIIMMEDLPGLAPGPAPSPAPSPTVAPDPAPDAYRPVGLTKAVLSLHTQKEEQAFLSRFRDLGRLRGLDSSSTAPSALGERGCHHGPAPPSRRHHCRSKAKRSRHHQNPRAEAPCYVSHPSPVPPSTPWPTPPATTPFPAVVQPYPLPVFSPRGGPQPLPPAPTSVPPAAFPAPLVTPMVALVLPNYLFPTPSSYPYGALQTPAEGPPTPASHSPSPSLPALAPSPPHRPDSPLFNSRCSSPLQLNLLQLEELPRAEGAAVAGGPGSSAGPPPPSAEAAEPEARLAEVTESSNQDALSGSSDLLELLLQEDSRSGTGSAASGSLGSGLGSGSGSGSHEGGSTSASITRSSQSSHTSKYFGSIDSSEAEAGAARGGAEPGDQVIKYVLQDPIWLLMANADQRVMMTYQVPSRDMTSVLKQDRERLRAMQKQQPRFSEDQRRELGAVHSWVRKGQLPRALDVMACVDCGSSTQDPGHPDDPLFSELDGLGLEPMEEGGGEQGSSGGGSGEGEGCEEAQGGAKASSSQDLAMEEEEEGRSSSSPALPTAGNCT

B1: HA-tagged hCKIε (human casein kinase I ε, wild type, expressed from pCEP4-CKIε in 293T cells) (protein)
chain: YPDYDVPDYAMELRVGNKYRLGRKIGSGSFGDIYLGANIASGEEVAIKLECVKTKHPQLHIESKFYKMMQGGVGIPSIKWCGAEGDYNVMVMELLGPSLEDLFNFCSRKFSLKTVLLLADQMISRIEYIHSKNFIHRDVKPDNFLMGLGKKGNLVYIIDFGLAKKYRDARTHQHIPYRENKNLTGTARYASINTHLGIEQSRRDDLESLGYVLMYFNLGSLPWQGLKAATKRQKYERISEKKMSTPIEVLCKGYPSEFSTYLNFCRSLRFDDKPDYSYLRQLFRNLFHRQGFSYDYVFDWNMLKFGAARNPEDVDRERREHEREERMGQLRGSATRALPPGPPTGATANRLRSAAEPVASTPASRIQPAGNTSPRAISRVDRERKVSMRLHRGAPANVSSSDLTGRQEVSRIPASQTSVPFDHLGK
B2: recombinant his-tagged wild-type hCKIε, expressed in E. coli and purified (protein)
chain: MELRVGNKYRLGRKIGSGSFGDIYLGANIASGEEVAIKLECVKTKHPQLHIESKFYKMMQGGVGIPSIKWCGAEGDYNVMVMELLGPSLEDLFNFCSRKFSLKTVLLLADQMISRIEYIHSKNFIHRDVKPDNFLMGLGKKGNLVYIIDFGLAKKYRDARTHQHIPYRENKNLTGTARYASINTHLGIEQSRRDDLESLGYVLMYFNLGSLPWQGLKAATKRQKYERISEKKMSTPIEVLCKGYPSEFSTYLNFCRSLRFDDKPDYSYLRQLFRNLFHRQGFSYDYVFDWNMLKFGAARNPEDVDRERREHEREERMGQLRGSATRALPPGPPTGATANRLRSAAEPVASTPASRIQPAGNTSPRAISRVDRERKVSMRLHRGAPANVSSSDLTGRQEVSRIPASQTSVPFDHLGK
B3: hCKIε-K38R, kinase-negative mutant of hCKIε, expressed in 293T cells (protein)
chain: MELRVGNKYRLGRKIGSGSFGDIYLGANIASGEEVAIRLECVKTKHPQLHIESKFYKMMQGGVGIPSIKWCGAEGDYNVMVMELLGPSLEDLFNFCSRKFSLKTVLLLADQMISRIEYIHSKNFIHRDVKPDNFLMGLGKKGNLVYIIDFGLAKKYRDARTHQHIPYRENKNLTGTARYASINTHLGIEQSRRDDLESLGYVLMYFNLGSLPWQGLKAATKRQKYERISEKKMSTPIEVLCKGYPSEFSTYLNFCRSLRFDDKPDYSYLRQLFRNLFHRQGFSYDYVFDWNMLKFGAARNPEDVDRERREHEREERMGQLRGSATRALPPGPPTGATANRLRSAAEPVASTPASRIQPAGNTSPRAISRVDRERKVSMRLHRGAPANVSSSDLTGRQEVSRIPASQTSVPFDHLGK
B4: recombinant histidine-tagged hCKIε-K38R, expressed in bacteria and purified (protein)
chain: MELRVGNKYRLGRKIGSGSFGDIYLGANIASGEEVAIRLECVKTKHPQLHIESKFYKMMQGGVGIPSIKWCGAEGDYNVMVMELLGPSLEDLFNFCSRKFSLKTVLLLADQMISRIEYIHSKNFIHRDVKPDNFLMGLGKKGNLVYIIDFGLAKKYRDARTHQHIPYRENKNLTGTARYASINTHLGIEQSRRDDLESLGYVLMYFNLGSLPWQGLKAATKRQKYERISEKKMSTPIEVLCKGYPSEFSTYLNFCRSLRFDDKPDYSYLRQLFRNLFHRQGFSYDYVFDWNMLKFGAARNPEDVDRERREHEREERMGQLRGSATRALPPGPPTGATANRLRSAAEPVASTPASRIQPAGNTSPRAISRVDRERKVSMRLHRGAPANVSSSDLTGRQEVSRIPASQTSVPFDHLGK

Columns and labels:
[1] = target: T1, hPER2-C-terminal YGFP protein (human …)
[2] = target: T2, Flag-tagged hPER1 (human Period 1, …)

Chain of GST-IkBα (P25963 whole entry): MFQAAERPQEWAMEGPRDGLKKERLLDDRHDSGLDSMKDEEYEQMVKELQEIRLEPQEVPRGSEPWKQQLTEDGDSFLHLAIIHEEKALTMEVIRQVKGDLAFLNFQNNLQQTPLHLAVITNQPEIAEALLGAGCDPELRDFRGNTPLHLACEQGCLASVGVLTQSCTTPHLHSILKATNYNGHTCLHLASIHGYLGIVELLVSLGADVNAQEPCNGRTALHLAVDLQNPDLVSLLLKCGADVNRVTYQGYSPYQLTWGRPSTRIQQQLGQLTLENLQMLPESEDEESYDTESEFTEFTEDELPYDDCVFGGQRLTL

Protein | P32 incorporation into hPER2 in cpm [1] [cpm] | Shift in hPER2 migration [1] | P32 incorporation [2] | in vitro kinase assay, 32P autoradiography [2] | in vitro kinase assay, 32P autoradiography (casein) | in vitro kinase assay, 32P autoradiography (GST-IkBα)
B1 | 5000 | + | co-transfection of hPER2 or hPER1 with CKIe resulted in the incorporation of p32 into both PER proteins |  |  | 
B2 |  |  |  | The presence of hCKIε results in phosphorylation of hPER1 | Recombinant hCKIε phosphorylates both casein and IkBα substrates | Recombinant hCKIε phosphorylates both casein and IkBα substrates
B3 | 3000 | - |  |  |  | 
B4 |  |  |  | hCKIε-K38R has no kinase activity towards hPER1 | does not phosphorylate either casein or GST-IkBα substrates | does not phosphorylate either casein or GST-IkBα substrates
